Measured values taken from article PMC2119102 (The Journal of Experimental Medicine, 1992).

Target: T1, human interleukin 5 receptor encoded by cDNA clone lambda-h5R.27 (human, UniProt Q01344 21-395)
T1 sequence: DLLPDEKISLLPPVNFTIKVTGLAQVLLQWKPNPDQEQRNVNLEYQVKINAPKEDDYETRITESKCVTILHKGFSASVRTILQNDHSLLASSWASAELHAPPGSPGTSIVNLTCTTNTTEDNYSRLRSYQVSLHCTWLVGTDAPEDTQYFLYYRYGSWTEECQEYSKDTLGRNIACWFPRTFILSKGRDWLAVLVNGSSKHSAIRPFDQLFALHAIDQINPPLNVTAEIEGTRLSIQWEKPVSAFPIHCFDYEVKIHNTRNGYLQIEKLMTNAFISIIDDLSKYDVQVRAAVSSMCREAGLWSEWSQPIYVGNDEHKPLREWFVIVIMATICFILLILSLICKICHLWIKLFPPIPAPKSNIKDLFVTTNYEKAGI
Test: radioligand binding

B1: recombinant murine interleukin 5, 35S-methionine labelled (ligand, mouse, UniProt P04401 21-133, looked up)
chain: MEIPMSTVVKETLTQLSAHRALLTSNETMRLPVPTHKNHQLCIGEIFQGLDILKNQTVRGGTVEMLFQNLSLIKKYIDRQKEKCGEERRRTRQFLDYLQEFLGVMSTEWAMEG
modifications: 35S-methionine labelled
Kd: 0.25 nM
